Results on 26 sequences are retold here after the Immune Epitope Database (IEDB).

pKd: −log10 of the molar value.

The target of one assay is HLA-A*23:01. Put plainly: IEDB peptide-MHC binding, purified MHC/competitive/radioactivity; filed as Kd, often an IC50 or EC50 that approximates it; ≥ and ≤ were set here for values at or beyond the usual limits of such assays.
A further assay deals with HLA-A*26:01. The assay is described as above.
A further assay addresses HLA-A*29:02. Described as above.
For a further assay, the target named is HLA-A*30:02. Described as above.
The target in another assay is HLA-A*24:02. Described as above.
The target in assay [1] is HLA-A*01:01. Described as above.
Assay [2] concerns the target HLA-A*01:01. Put plainly: IEDB peptide-MHC binding, purified MHC/direct/fluorescence; filed as Kd, often an IC50 or EC50 that approximates it; ≥ and ≤ were set here for values at or beyond the usual limits of such assays. Particulars: source organism: SARS-CoV1.
The target of a further assay is HLA-B*15:01. The assay is described as above. Particulars: source organism: SARS-CoV1.
The next assay addresses HLA-A*30:01. In words: IEDB peptide-MHC binding, purified MHC/competitive/radioactivity; filed as Kd, often an IC50 or EC50 that approximates it; ≥ and ≤ were set here for values at or beyond the usual limits of such assays.
The next assay concerns the target HLA-A*03:01. The assay is described as above. Particulars: source organism: Dengue virus 2 Jamaica/1409/1983.
Another assay concerns the target HLA-A*11:01. The assay is described as above. Particulars: source organism: Dengue virus 2 Jamaica/1409/1983.
The mark [3] stands for this setting: source organism: Lassa virus Josiah.
[4] abbreviates: source organism: SARS coronavirus Tor2.
Setting [5] is: source organism: Vaccinia virus WR.
Where [6] appears, read: source organism: Dengue virus 2 Jamaica/1409/1983.
Where [7] appears, read: source organism: Dengue virus 3 Martinique/1243/1999.
[8] abbreviates: source organism: Mammarenavirus lassaense.
[9] abbreviates: source organism: Dengue virus 4 Philippines/H241/1956.

As to YCNYSKYWY, the pKd in the assay with HLA-A*23:01 (setting [3]) was 4.87; with HLA-A*26:01 (setting [3]), ≤ 4.11; with HLA-A*29:02 (setting [3]) it was 6.15; with HLA-A*30:02 (setting [3]) it was 6.18; with HLA-A*24:02 (setting [3]), ≤ 4.35; in the assay with HLA-A*01:01 [1] (setting [3]) it was 4.80.
On to NQDLNGNWY, for which the pKd with HLA-A*01:01 [2] is 6.55; with HLA-B*15:01, 4.82; with HLA-A*23:01 (setting [4]) it was ≤ 4.11; with HLA-A*26:01 (setting [4]), ≤ 4.46; with HLA-A*29:02 (setting [4]), 6.07; with HLA-A*30:02 (setting [4]), 5.57. Moreover, the pKd in the assay with HLA-A*24:02 (setting [4]) was ≤ 4.11.
Regarding IFFASFYYIW, the negative-log Kd (pKd) with HLA-A*23:01 (setting [4]) was 9.28; in the assay with HLA-A*26:01 (setting [4]) it was 5.86; in the assay with HLA-A*29:02 (setting [4]), 7.50; with HLA-A*30:02 (setting [4]), 4.92; with HLA-A*24:02 (setting [4]), 7.61; in the assay with HLA-A*01:01 [1] (setting [4]), 5.90.
NYPLWSQSY: in the assay with HLA-A*24:02 (source organism: Homo sapiens), the pKd was 6.44.
In the case of VTDTNKFAHY, the pKd with HLA-A*23:01 (source organism: Variola virus) is ≤ 4.30; with HLA-A*26:01 (source organism: Variola virus), ≤ 4.16; with HLA-A*29:02 (source organism: Variola virus), ≤ 4.59; with HLA-A*30:02 (source organism: Variola virus) it was 5.89; with HLA-A*24:02 (source organism: Variola virus), ≤ 4.15; in the assay with HLA-A*01:01 [1] (source organism: Variola virus), 7.87.
For the sequence HVKIPTHLT, the pKd with HLA-A*30:01 (setting [5]) was 6.65.
VDTRTPRPMP: the pKd with HLA-A*30:01 (source organism: Dengue virus 3 Sri Lanka/1266/2000) was 6.38.
RVSTVSQLA: in the assay with HLA-A*30:01 (source organism: Dengue virus 1 Nauru/West Pac/1974), the pKd was 6.45.
As for KNKESLPML, in the assay with HLA-A*30:01 (setting [5]), the pKd is 7.74.
Still for that read-out and setting: then KSRVERVQV, with 7.95.
As for ALTLATGPIS, in the assay with HLA-A*30:01 (setting [6]), the pKd is 6.66.
As to RFLAIPPTA, the pKd with HLA-A*30:01 (source organism: Dengue virus 1 Brazil/97-11/1997) was 6.90.
DSKEGFFTY: the pKd with HLA-A*23:01 (setting [4]) was ≤ 4.11; in the assay with HLA-A*26:01 (setting [4]) it was 6.00; in the assay with HLA-A*29:02 (setting [4]) it was 6.18; with HLA-A*30:02 (setting [4]) it was 6.63; with HLA-A*24:02 (setting [4]), ≤ 4.11; with HLA-A*01:01 [1] (setting [4]), 6.70.
As to VYALCTLLHL, the pKd in the assay with HLA-A*23:01 (setting [4]) is 7.40; with HLA-A*26:01 (setting [4]), 4.85; with HLA-A*29:02 (setting [4]) it was 5.25; with HLA-A*30:02 (setting [4]) it was ≤ 4.00; with HLA-A*24:02 (setting [4]), 7.12; in the assay with HLA-A*01:01 [1] (setting [4]) it was 4.70.
For the sequence RVRYLTRNY, in the assay with HLA-A*30:01 (setting [5]), the negative logarithm of the Kd (pKd) is 8.25.
As to SILASSLLK, the figures for the pKd with HLA-A*03:01, in the assay with HLA-A*11:01 and in the assay with HLA-A*30:01 (setting [6]) were 7.86, 7.96 and 6.72, respectively.
Turning to AWMVHRQWF, the pKd is 6.47 with HLA-A*23:01 (setting [7]) and 7.37 in the assay with HLA-A*24:02 (setting [7]).
Consider LAAEWVLAY, for which the pKd with HLA-A*23:01 (setting [4]) is ≤ 4.39; in the assay with HLA-A*26:01 (setting [4]) it was 7.12; with HLA-A*29:02 (setting [4]), 9.33; in the assay with HLA-A*30:02 (setting [4]), 7.79; with HLA-A*24:02 (setting [4]), ≤ 4.39; in the assay with HLA-A*01:01 [1] (setting [4]), 7.45.
Regarding ILSDDAVVCY, the negative logarithm of the Kd (pKd) with HLA-A*23:01 (setting [4]) was ≤ 4.15; with HLA-A*26:01 (setting [4]) it was ≤ 4.41; with HLA-A*29:02 (setting [4]), 6.49; in the assay with HLA-A*30:02 (setting [4]), 5.68; in the assay with HLA-A*24:02 (setting [4]), ≤ 4.15; with HLA-A*01:01 [1] (setting [4]) it was 7.99.
As for FYFTNDVSF, the pKd with HLA-A*23:01 (setting [4]) was 5.83; with HLA-A*26:01 (setting [4]) it was ≤ 4.65; with HLA-A*29:02 (setting [4]), 6.38; with HLA-A*30:02 (setting [4]), ≤ 4.01; in the assay with HLA-A*24:02 (setting [4]) it was 5.55; with HLA-A*01:01 [1] (setting [4]), 4.77.
RFLYIIKLVF: the pKd in the assay with HLA-A*23:01 (setting [4]) was 10.49; with HLA-A*26:01 (setting [4]), 4.78; with HLA-A*29:02 (setting [4]), 5.98; with HLA-A*30:02 (setting [4]), 5.92; in the assay with HLA-A*24:02 (setting [4]) it was 7.88; in the assay with HLA-A*01:01 [1] (setting [4]), 5.97.
As to VDINLIPLI, the negative-log Kd (pKd) was 5.79 with HLA-A*23:01 (setting [8]); ≤ 4.11 with HLA-A*26:01 (setting [8]); ≤ 4.10 with HLA-A*29:02 (setting [8]); ≤ 4.11 with HLA-A*30:02 (setting [8]); 5.53 with HLA-A*24:02 (setting [8]); 4.71 with HLA-A*01:01 [1] (setting [8]).
In the case of LWMAEIPLQW, the pKd in the assay with HLA-A*23:01 (setting [7]) is 7.86; with HLA-A*24:02 (setting [7]), 7.41.
YIESKRGVY: the pKd in the assay with HLA-A*23:01 (setting [4]) is ≤ 4.11; in the assay with HLA-A*26:01 (setting [4]), 6.13; in the assay with HLA-A*29:02 (setting [4]), 7.69; with HLA-A*30:02 (setting [4]) it was 7.33; with HLA-A*24:02 (setting [4]), ≤ 4.11; with HLA-A*01:01 [1] (setting [4]), 6.84.
For the sequence FFQEVPHVI, the pKd in the assay with HLA-A*23:01 (setting [3]) is 6.62; with HLA-A*29:02 (setting [3]), 6.29; in the assay with HLA-A*24:02 (setting [3]) it was 6.15.
ESWILRNPGF: the pKd in the assay with HLA-A*26:01 (setting [9]) was 5.01; in the assay with HLA-A*30:01 (setting [9]), 6.37.
